pKd: −log10 of the molar value.
Target: GABARAP (human) (UniProt O95166)
Assay: ITC, GABARAP titrated into the peptide

Sequence of GABARAP (human) (O95166 whole entry): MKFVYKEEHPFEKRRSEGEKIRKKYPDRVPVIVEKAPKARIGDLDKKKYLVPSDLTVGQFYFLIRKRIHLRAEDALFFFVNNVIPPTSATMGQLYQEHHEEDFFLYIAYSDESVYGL

pKd: 6.20
Substance: FAM134B LIR-L E462R (peptide)

From patent US20210169980A1
